# Reference: patent publication US20050048527
# What was measured:
# [1] = molecular target: T1, Pfu FEN1 (Pyrococcus furiosus) (UniProt O93634); assay: cleavage_in_vitro; details: turnover
# T1 sequence: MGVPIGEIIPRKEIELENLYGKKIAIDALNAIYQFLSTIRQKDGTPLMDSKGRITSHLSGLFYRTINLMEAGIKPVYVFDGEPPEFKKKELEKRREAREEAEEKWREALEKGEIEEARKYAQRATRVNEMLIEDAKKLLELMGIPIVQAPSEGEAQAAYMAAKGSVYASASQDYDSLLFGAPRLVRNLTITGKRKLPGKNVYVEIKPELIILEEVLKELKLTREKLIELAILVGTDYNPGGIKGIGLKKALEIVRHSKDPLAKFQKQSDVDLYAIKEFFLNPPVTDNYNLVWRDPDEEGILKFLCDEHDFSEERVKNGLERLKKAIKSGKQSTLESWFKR
# [2] = molecular target: T2, Mja FEN1 (Methanococcus jannaschii) (UniProt Q58839); assay: cleavage_in_vitro; details: turnover
# T2 sequence: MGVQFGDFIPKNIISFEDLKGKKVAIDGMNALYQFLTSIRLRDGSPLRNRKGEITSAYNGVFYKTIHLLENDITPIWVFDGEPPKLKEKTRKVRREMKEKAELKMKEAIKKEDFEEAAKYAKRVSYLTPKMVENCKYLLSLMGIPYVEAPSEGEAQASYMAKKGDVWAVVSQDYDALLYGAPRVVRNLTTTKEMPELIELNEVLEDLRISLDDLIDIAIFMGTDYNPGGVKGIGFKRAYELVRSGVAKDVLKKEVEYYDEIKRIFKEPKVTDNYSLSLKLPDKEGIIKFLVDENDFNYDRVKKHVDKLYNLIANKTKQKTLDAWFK
# [3] = test system: CLEAVASE BN/thrombin nuclease
# CLEAVASE BN/thrombin nuclease, sequence (chain, as listed by the source): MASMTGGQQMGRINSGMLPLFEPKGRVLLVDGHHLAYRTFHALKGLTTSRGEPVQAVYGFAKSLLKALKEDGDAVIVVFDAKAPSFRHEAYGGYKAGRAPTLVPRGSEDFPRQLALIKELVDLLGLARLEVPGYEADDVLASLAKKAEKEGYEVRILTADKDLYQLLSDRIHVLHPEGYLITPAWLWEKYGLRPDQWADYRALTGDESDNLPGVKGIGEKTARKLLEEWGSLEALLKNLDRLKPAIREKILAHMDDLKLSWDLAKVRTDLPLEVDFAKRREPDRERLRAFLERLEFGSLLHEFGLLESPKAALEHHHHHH
# [4] = test system: CLEAVASE BN nuclease
# CLEAVASE BN nuclease, sequence (chain, as listed by the source): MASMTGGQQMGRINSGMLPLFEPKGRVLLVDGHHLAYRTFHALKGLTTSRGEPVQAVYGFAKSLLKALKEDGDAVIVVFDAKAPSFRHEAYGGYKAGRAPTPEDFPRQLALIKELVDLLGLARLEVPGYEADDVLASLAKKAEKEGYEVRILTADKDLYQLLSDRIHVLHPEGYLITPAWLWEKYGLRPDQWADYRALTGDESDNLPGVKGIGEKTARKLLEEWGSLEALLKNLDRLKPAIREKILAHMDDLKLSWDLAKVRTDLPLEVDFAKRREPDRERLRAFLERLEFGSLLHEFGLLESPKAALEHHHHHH
# [5] = test system: Thermus aquaticus DNA polymerase
# Thermus aquaticus DNA polymerase, sequence (chain, as listed by the source): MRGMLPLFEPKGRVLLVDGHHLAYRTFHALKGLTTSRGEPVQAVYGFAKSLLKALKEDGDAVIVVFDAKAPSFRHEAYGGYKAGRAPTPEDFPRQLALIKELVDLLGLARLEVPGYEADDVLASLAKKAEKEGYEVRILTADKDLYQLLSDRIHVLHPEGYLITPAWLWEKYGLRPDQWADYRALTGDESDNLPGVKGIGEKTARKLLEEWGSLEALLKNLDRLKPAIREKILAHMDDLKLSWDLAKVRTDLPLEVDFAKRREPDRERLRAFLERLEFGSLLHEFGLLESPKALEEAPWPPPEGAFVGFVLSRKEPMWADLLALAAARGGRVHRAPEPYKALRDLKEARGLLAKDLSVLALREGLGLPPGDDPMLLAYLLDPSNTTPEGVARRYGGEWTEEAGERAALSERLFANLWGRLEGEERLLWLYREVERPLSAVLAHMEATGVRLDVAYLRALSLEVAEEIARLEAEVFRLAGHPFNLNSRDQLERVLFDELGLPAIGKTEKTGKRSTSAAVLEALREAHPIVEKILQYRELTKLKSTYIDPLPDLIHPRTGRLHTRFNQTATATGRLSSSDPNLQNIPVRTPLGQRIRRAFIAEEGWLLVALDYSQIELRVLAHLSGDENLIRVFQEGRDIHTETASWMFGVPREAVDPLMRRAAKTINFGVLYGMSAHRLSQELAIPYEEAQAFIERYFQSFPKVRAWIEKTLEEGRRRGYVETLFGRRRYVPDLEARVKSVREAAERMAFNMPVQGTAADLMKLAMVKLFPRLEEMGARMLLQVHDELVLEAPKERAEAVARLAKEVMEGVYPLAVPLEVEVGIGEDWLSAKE
# [6] = molecular target: CLEAVASE A/G nuclease (Thermus aquaticus) (UniProt P19821); assay: cleavage_in_vitro; details: probe cleaved in 30 min
# [7] = molecular target: DNAPTth (Thermus thermophilus) (UniProt P52028); assay: cleavage_in_vitro; details: probe cleaved in 30 min
# DNAPTth (Thermus thermophilus), sequence (P52028 whole entry): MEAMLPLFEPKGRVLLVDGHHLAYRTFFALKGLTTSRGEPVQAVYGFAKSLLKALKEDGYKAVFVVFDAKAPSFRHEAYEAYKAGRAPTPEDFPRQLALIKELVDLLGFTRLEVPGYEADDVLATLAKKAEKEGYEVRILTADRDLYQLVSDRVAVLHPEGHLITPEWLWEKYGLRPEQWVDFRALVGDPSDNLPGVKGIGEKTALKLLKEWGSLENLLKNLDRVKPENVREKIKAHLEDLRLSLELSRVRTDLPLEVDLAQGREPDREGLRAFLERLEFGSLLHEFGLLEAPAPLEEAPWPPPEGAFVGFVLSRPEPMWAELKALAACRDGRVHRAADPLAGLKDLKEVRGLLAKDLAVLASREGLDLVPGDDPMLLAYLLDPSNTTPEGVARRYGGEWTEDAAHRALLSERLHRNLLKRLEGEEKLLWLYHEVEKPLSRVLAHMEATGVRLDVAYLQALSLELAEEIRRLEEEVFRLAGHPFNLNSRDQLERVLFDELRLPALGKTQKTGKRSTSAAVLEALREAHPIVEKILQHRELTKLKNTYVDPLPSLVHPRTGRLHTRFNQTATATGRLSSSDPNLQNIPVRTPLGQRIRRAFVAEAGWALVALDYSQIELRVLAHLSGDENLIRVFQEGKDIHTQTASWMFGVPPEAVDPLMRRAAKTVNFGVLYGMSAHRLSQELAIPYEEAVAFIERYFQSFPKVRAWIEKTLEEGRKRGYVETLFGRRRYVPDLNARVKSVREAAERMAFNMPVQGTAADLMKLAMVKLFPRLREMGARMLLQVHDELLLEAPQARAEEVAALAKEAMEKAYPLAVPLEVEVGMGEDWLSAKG
# [8] = molecular target: PAP FEN1 (arch swap chimera) (Pyrococcus furiosus / Archaeoglobus fulgidus?) (UniProt O93634); assay: cleavage_in_vitro; details: rate vs Pfu FEN1
# [9] = molecular target: MPM FEN1 (arch swap chimera) (Methanococcus jannaschii / Pyrococcus furiosus?) (UniProt Q58839); assay: cleavage_in_vitro; details: rate vs Pfu FEN1
# [10] = molecular target: Mja + P16 FEN1 (loop swap chimera) (Methanococcus jannaschii / Pyrococcus furiosus?) (UniProt Q58839); assay: cleavage_in_vitro; details: rate vs Pfu FEN1
# [11] = molecular target: PMP FEN1 (arch swap chimera) (UniProt O93634); assay: cleavage_in_vitro; details: rate vs Pfu FEN1
# [12] = molecular target: MAM FEN1 (arch swap chimera) (Methanococcus jannaschii / Archaeoglobus fulgidus?) (UniProt Q58839); assay: cleavage_in_vitro; details: rate vs Pfu FEN1
# [13] = molecular target: Pfu + M4 FEN1 (loop swap chimera) (UniProt O93634); assay: cleavage_in_vitro; details: rate vs Pfu FEN1
substance,measurement,setting,value
duplex length 0 substrate,activity,[1],0 per min
same,activity,[2],0 per min
thrombin,"thrombin digestion, SDS-PAGE with Coomassie stain",[3],CLEAVASE BN/thrombin nuclease is efficiently cleaved by thrombin
same,protease digestion of the unmodified nuclease,[4],neither nuclease was digested with large amounts of thrombin
same,protease digestion of the unmodified nuclease,[5],neither nuclease was digested with large amounts of thrombin
duplex length 8 substrate,activity,[1],45 per min
same,activity,[2],46 per min
duplex length 6 substrate,activity,[1],44 per min
same,activity,[2],51 per min
CCGGTCGTCCTGGCAATXCC / GTTTATCCAAGAAAGGACCCGGTC [HCV RNA target/probe/INVADER (DNA oligos listed)],activity,[6],32%
same,activity,[7],70%
TTTTTCACGGCAGTTGGTGCGCCTCGGAACGAGGCGCACA / TTTTCAACTGCCGTGA [INVADER substrate 594-12-1/203-91-1],cleavage rate,[8],0.56
same,cleavage rate,[9],0.14
same,cleavage rate,[10],1.2
same,cleavage rate,[11],2.4
same,cleavage rate,[12],0.03
same,cleavage rate,[13],0.05
duplex length 4 substrate,activity,[1],10 per min
same,activity,[2],57 per min
duplex length 3 substrate,activity,[1],1 per min
same,activity,[2],29 per min
TTTTCAACTGCTTAGAGAATCTAAGCAGTTGGTGCGCCTCGTTAA / AACGAGGCGCACATT [X-structure 203-81-2/203-91-2],cleavage rate,[8]; 3'-NH2 on first strand,0.52
same,cleavage rate,[9]; 3'-NH2 on first strand,0.1
same,cleavage rate,[10]; 3'-NH2 on first strand,59
same,cleavage rate,[11]; 3'-NH2 on first strand,1.37
same,cleavage rate,[12]; 3'-NH2 on first strand,0.07
same,cleavage rate,[13]; 3'-NH2 on first strand,0.28
factor Xa,protease digestion of the unmodified nuclease,[4],Both nuclease proteins were cut with factor Xa within the 5′ nuclease domain
same,protease digestion of the unmodified nuclease,[5],Both nuclease proteins were cut with factor Xa within the 5′ nuclease domain
